Data: article PMC7041945, “Misfolded proteins bind and activate death receptor 5 to trigger apoptosis during unresolved endoplasmic reticulum stress” (eLife, 2020)

System: CHOP, BiP, and DR5 mRNA in HCT116 cells
Assay: qPCR of UPR target transcripts (CHOP, BiP, DR5)
Type: cell-based, Homo sapiens
Settings: HCT116; for ERO1alpha (386+387) avg. fold induction relative to empty traffo / ERO1alpha (386+387) fold induction relative to empty traffo: melt curves for these primers showed two peaks; for GAPDH avg. fold induction relative to empty traffo / GAPDH fold induction relative to empty traffo: sheet Cq data 2
Protocol: Cells were grown in 6-well plates and harvested with 0.5 ml of TRIzol reagent (Life Technologies) per manufacturer’s protocol to extract RNA. For cDNA synthesis, 500 ng of total RNA was reverse transcribed with 2 μl of the SuperScript VILO master mix (Life Technologies # 11755050) in a total reaction volume of 10 μl following the manufacturer’s protocol for reaction temperature and duration. The reverse transcription product was diluted to 200 μl with 10 mM Tris-HCl pH 8.2 and used at 1:100 dilution for subsequent RT-PCR reactions.
PCR samples were prepared as described by manufacturer’s protocols from iQ SYBR Green Supermix (BioRad #17088800).
For each experiment, qRT-PCR reactions were set up in triplicate and run using a CFX96 Real Time System (Bio-Rad). Quantitation cycles were determined with CFX Manager 3.0 software (Bio-Rad) and then normalized to GAPDH as an internal control.

[1] = pRK CHOP 31 ng, mean of 3 replicates
[2] = pRK CHOP 62 ng, mean of 3 replicates
[3] = pRK CHOP 125 ng, mean of 3 replicates
[4] = pRK CHOP 250 ng, mean of 3 replicates
[5] = pRK CHOP 500 ng, mean of 3 replicates

B1: pRK CHOP (protein, UniProt P35638 1-169, looked up)
DNA damage-inducible …: MAAESLPFSFGTLSSWELEAWYEDLQEVLSSDENGGTYVSPPGNEEEESKIFTTLDPASLAWLTEEEPEPAEVTSTSQSPHSPDSSQSSLAQEEEEEDQGRTRKRKQSGHSPARAGKQRMKEKEQENERKVAQLAEENERLKQEIERLTREVEATRRALIDRMVNLHQA
modifications: expression plasmid
- GAPDH (qPCR CHOP, Sheet1) (pRK CHOP 31 ng, replicate 1): 0.869
- CHOP (qPCR CHOP, Sheet1) (pRK CHOP 31 ng, replicate 2): 19.1521
- DR5 (qPCR CHOP, Sheet1) (pRK CHOP 31 ng, replicate 2): 0.9212
- GADD34 (qPCR CHOP, Sheet1) (pRK CHOP 31 ng, replicate 2): 1.088
- GAPDH (qPCR CHOP, Sheet1) (pRK CHOP 31 ng, replicate 2): 1.031
- CHOP (qPCR CHOP, Sheet1) (pRK CHOP 31 ng, replicate 3): 20.8362
- DR5 (qPCR CHOP, Sheet1) (pRK CHOP 31 ng, replicate 3): 2.023
- GADD34 (qPCR CHOP, Sheet1) (pRK CHOP 31 ng, replicate 3): 1.137
- GAPDH (qPCR CHOP, Sheet1) (pRK CHOP 31 ng, replicate 3): 1.033
- GADD34 (388+389) avg. fold induction relative to empty traffo [1]: 1
- GFP avg. fold induction relative to empty traffo [1]: 1.822
- ERO1alpha (386+387) avg. fold induction relative to empty traffo [1]: 1.061
- ERO1alpha (386+387) fold induction relative to empty traffo (pRK CHOP 31 ng, replicate 1): 0.958
- ERO1alpha (386+387) fold induction relative to empty traffo (pRK CHOP 31 ng, replicate 2): 1.088
- ERO1alpha (386+387) fold induction relative to empty traffo (pRK CHOP 31 ng, replicate 3): 1.137
- GADD34 (388+389) fold induction relative to empty traffo (pRK CHOP 31 ng, replicate 1): 1.125
- GFP fold induction relative to empty traffo (pRK CHOP 31 ng, replicate 1): 1.737
- GADD34 (388+389) fold induction relative to empty traffo (pRK CHOP 31 ng, replicate 2): 0.859
- GFP fold induction relative to empty traffo (pRK CHOP 31 ng, replicate 2): 1.908
- GADD34 (388+389) fold induction relative to empty traffo (pRK CHOP 31 ng, replicate 3): 1.016
- GFP fold induction relative to empty traffo (pRK CHOP 31 ng, replicate 3): 1.822
- GAPDH avg. fold induction relative to empty traffo [1]: 1.0065
- GAPDH fold induction relative to empty traffo (pRK CHOP 31 ng, replicate 1): 0.9404
- GAPDH fold induction relative to empty traffo (pRK CHOP 31 ng, replicate 2): 0.905
- GAPDH fold induction relative to empty traffo (pRK CHOP 31 ng, replicate 3): 1.174
- GFP avg. fold induction relative to empty traffo [2]: 1.726
- ERO1alpha (386+387) avg. fold induction relative to empty traffo [2]: 1.099
- ERO1alpha (386+387) fold induction relative to empty traffo (pRK CHOP 62 ng, replicate 1): 1.074
- ERO1alpha (386+387) fold induction relative to empty traffo (pRK CHOP 62 ng, replicate 2): 1.056
- ERO1alpha (386+387) fold induction relative to empty traffo (pRK CHOP 62 ng, replicate 3): 1.168
- GADD34 (388+389) fold induction relative to empty traffo (pRK CHOP 62 ng, replicate 1): 0.9151
- GFP fold induction relative to empty traffo (pRK CHOP 62 ng, replicate 1): 1.604
- GADD34 (388+389) fold induction relative to empty traffo (pRK CHOP 62 ng, replicate 2): 1.316
- GFP fold induction relative to empty traffo (pRK CHOP 62 ng, replicate 2): 1.747
- GADD34 (388+389) fold induction relative to empty traffo (pRK CHOP 62 ng, replicate 3): 1.12
- GFP fold induction relative to empty traffo (pRK CHOP 62 ng, replicate 3): 1.828
- GAPDH avg. fold induction relative to empty traffo [2]: 1.001
- GAPDH fold induction relative to empty traffo (pRK CHOP 62 ng, replicate 1): 0.9597
- GAPDH fold induction relative to empty traffo (pRK CHOP 62 ng, replicate 2): 0.9785
- GAPDH fold induction relative to empty traffo (pRK CHOP 62 ng, replicate 3): 1.064
- CHOP (qPCR CHOP, Sheet1) (pRK CHOP 125 ng, replicate 1): 230.561
- DR5 (qPCR CHOP, Sheet1) (pRK CHOP 125 ng, replicate 1): 1.242
- GADD34 (qPCR CHOP, Sheet1) (pRK CHOP 125 ng, replicate 1): 1.11
- GAPDH (qPCR CHOP, Sheet1) (pRK CHOP 125 ng, replicate 1): 0.8158
- CHOP (qPCR CHOP, Sheet1) (pRK CHOP 125 ng, replicate 2): 173.762
- DR5 (qPCR CHOP, Sheet1) (pRK CHOP 125 ng, replicate 2): 1.206
- GADD34 (qPCR CHOP, Sheet1) (pRK CHOP 125 ng, replicate 2): 1.18
- GAPDH (qPCR CHOP, Sheet1) (pRK CHOP 125 ng, replicate 2): 1.045
- CHOP (qPCR CHOP, Sheet1) (pRK CHOP 125 ng, replicate 3): 257.78
- DR5 (qPCR CHOP, Sheet1) (pRK CHOP 125 ng, replicate 3): 1.064
- GADD34 (qPCR CHOP, Sheet1) (pRK CHOP 125 ng, replicate 3): 1.241
- GAPDH (qPCR CHOP, Sheet1) (pRK CHOP 125 ng, replicate 3): 1.086
- GFP avg. fold induction relative to empty traffo [3]: 8.414
- ERO1alpha (386+387) avg. fold induction relative to empty traffo [3]: 1.177
- ERO1alpha (386+387) fold induction relative to empty traffo (pRK CHOP 125 ng, replicate 1): 1.11
- ERO1alpha (386+387) fold induction relative to empty traffo (pRK CHOP 125 ng, replicate 2): 1.18
- ERO1alpha (386+387) fold induction relative to empty traffo (pRK CHOP 125 ng, replicate 3): 1.241
- GADD34 (388+389) fold induction relative to empty traffo (pRK CHOP 125 ng, replicate 1): 1.561
- GFP fold induction relative to empty traffo (pRK CHOP 125 ng, replicate 1): 9.5448
- GADD34 (388+389) fold induction relative to empty traffo (pRK CHOP 125 ng, replicate 2): 1.2889
- GFP fold induction relative to empty traffo (pRK CHOP 125 ng, replicate 2): 8.015
- GADD34 (388+389) fold induction relative to empty traffo (pRK CHOP 125 ng, replicate 3): 1.475
- GFP fold induction relative to empty traffo (pRK CHOP 125 ng, replicate 3): 7.683
- GAPDH avg. fold induction relative to empty traffo [3]: 1.018
- GAPDH fold induction relative to empty traffo (pRK CHOP 125 ng, replicate 1): 0.7828
- GAPDH fold induction relative to empty traffo (pRK CHOP 125 ng, replicate 2): 1.018
- GAPDH fold induction relative to empty traffo (pRK CHOP 125 ng, replicate 3): 1.254
- GFP avg. fold induction relative to empty traffo [4]: 2.186
- ERO1alpha (386+387) avg. fold induction relative to empty traffo [4]: 1.157
- ERO1alpha (386+387) fold induction relative to empty traffo (pRK CHOP 250 ng, replicate 1): 1.13
- ERO1alpha (386+387) fold induction relative to empty traffo (pRK CHOP 250 ng, replicate 2): 1.17
- ERO1alpha (386+387) fold induction relative to empty traffo (pRK CHOP 250 ng, replicate 3): 1.17
- GADD34 (388+389) fold induction relative to empty traffo (pRK CHOP 250 ng, replicate 1): 1.613
- GFP fold induction relative to empty traffo (pRK CHOP 250 ng, replicate 1): 2.374
- GADD34 (388+389) fold induction relative to empty traffo (pRK CHOP 250 ng, replicate 2): 1.727
- GFP fold induction relative to empty traffo (pRK CHOP 250 ng, replicate 2): 2.176
- GADD34 (388+389) fold induction relative to empty traffo (pRK CHOP 250 ng, replicate 3): 1.397
- GFP fold induction relative to empty traffo (pRK CHOP 250 ng, replicate 3): 2.009
- GAPDH avg. fold induction relative to empty traffo [4]: 1.005
- GAPDH fold induction relative to empty traffo (pRK CHOP 250 ng, replicate 1): 0.8675
- GAPDH fold induction relative to empty traffo (pRK CHOP 250 ng, replicate 2): 1.034
- GAPDH fold induction relative to empty traffo (pRK CHOP 250 ng, replicate 3): 1.114
- CHOP (qPCR CHOP, Sheet1) (pRK CHOP 500 ng, replicate 1): 1691.32
- DR5 (qPCR CHOP, Sheet1) (pRK CHOP 500 ng, replicate 1): 1.92
- GADD34 (qPCR CHOP, Sheet1) (pRK CHOP 500 ng, replicate 1): 1.469
- GAPDH (qPCR CHOP, Sheet1) (pRK CHOP 500 ng, replicate 1): 0.9688
- CHOP (qPCR CHOP, Sheet1) (pRK CHOP 500 ng, replicate 2): 1384.67
- DR5 (qPCR CHOP, Sheet1) (pRK CHOP 500 ng, replicate 2): 1.724
- GADD34 (qPCR CHOP, Sheet1) (pRK CHOP 500 ng, replicate 2): 1.35
- GAPDH (qPCR CHOP, Sheet1) (pRK CHOP 500 ng, replicate 2): 0.7886
- CHOP (qPCR CHOP, Sheet1) (pRK CHOP 500 ng, replicate 3): 1378.19
- DR5 (qPCR CHOP, Sheet1) (pRK CHOP 500 ng, replicate 3): 1.731
- GADD34 (qPCR CHOP, Sheet1) (pRK CHOP 500 ng, replicate 3): 1.457
- GAPDH (qPCR CHOP, Sheet1) (pRK CHOP 500 ng, replicate 3): 1.212
- GFP avg. fold induction relative to empty traffo [5]: 12.178
- ERO1alpha (386+387) avg. fold induction relative to empty traffo [5]: 1.425
- ERO1alpha (386+387) fold induction relative to empty traffo (pRK CHOP 500 ng, replicate 1): 1.469
- ERO1alpha (386+387) fold induction relative to empty traffo (pRK CHOP 500 ng, replicate 2): 1.35
- ERO1alpha (386+387) fold induction relative to empty traffo (pRK CHOP 500 ng, replicate 3): 1.457
- GADD34 (388+389) fold induction relative to empty traffo (pRK CHOP 500 ng, replicate 1): 2.321
- GFP fold induction relative to empty traffo (pRK CHOP 500 ng, replicate 1): 5.396
- GADD34 (388+389) fold induction relative to empty traffo (pRK CHOP 500 ng, replicate 2): 2.041
- GADD34 (388+389) fold induction relative to empty traffo (pRK CHOP 500 ng, replicate 3): 2.147
- GFP fold induction relative to empty traffo (pRK CHOP 500 ng, replicate 3): 5.386
- GAPDH avg. fold induction relative to empty traffo [5]: 1.044
- GAPDH fold induction relative to empty traffo (pRK CHOP 500 ng, replicate 1): 0.6526
- GAPDH fold induction relative to empty traffo (pRK CHOP 500 ng, replicate 2): 1.156
- GAPDH fold induction relative to empty traffo (pRK CHOP 500 ng, replicate 3): 1.324
